To fix the notation:
B1: cr820 (nucleic acid)
guide: GTTTAAGAGCTAAGCTGGAAACAGCATAGCAAGTTTAAATAAGGCTAGTCCGTTATCAACTGGAGACAGTGGCACCGAGTCGGTGCT
modifications: listed as DNA, chemistry not fully specified
B2: cr234 (nucleic acid)
guide: B1 guide with G62C, G65A, C67A
modifications: listed as DNA, chemistry not fully specified
B3: cr925 (nucleic acid)
guide: B1 guide with A59T, T61G, G62A, G65A, C67T, A68C, T70A
modifications: listed as DNA, chemistry not fully specified
B4: cr858 (nucleic acid)
guide: B1 guide with A20G, G62T, G65A, C67A
modifications: listed as DNA, chemistry not fully specified
B5: cr801 (nucleic acid)
guide: B1 guide with A59G, G62T, G65A, C67A, T70C, C73A, C75G, G83C, G85T
modifications: listed as DNA, chemistry not fully specified
B6: cr730 (nucleic acid)
guide: B1 guide with G62T, G65A, C67A, C73G, A74G, C75G, G83C, T84C, G85C
modifications: listed as DNA, chemistry not fully specified
B7: cr408 (nucleic acid)
guide: B1 guide with G62T, C67A, G72A, C86T
modifications: listed as DNA, chemistry not fully specified
B8: cr710 (nucleic acid)
guide: B1 guide with G62T, G65A, C67A, C75G, G83C
modifications: listed as DNA, chemistry not fully specified
B9: cr464 (nucleic acid)
guide: B1 guide with A59C, G62T, G65A, C67A, T70G, G77A, C81T
modifications: listed as DNA, chemistry not fully specified
B10: cr345 (nucleic acid)
guide: B1 guide with A21C, G62T, G65A, C67A
modifications: listed as DNA, chemistry not fully specified
B11: cr444 (nucleic acid)
guide: B1 guide with G62T, G65C, C67A
modifications: listed as DNA, chemistry not fully specified
B12: cr019 (nucleic acid)
guide: B1 guide with G7C, G62T, G65A, C67A
modifications: listed as DNA, chemistry not fully specified
B13: cr121 (nucleic acid)
guide: B1 guide with A59T, T61A, G62T, G65A, C67A, A68T, T70A
modifications: listed as DNA, chemistry not fully specified
B14: cr888 (nucleic acid)
guide: B1 guide with G62T, G63T, G65C, C67A
modifications: listed as DNA, chemistry not fully specified
B15: cr896 (nucleic acid)
guide: B1 guide with G62T, G65A, C67A, C73A, A74C, T84G, G85T
modifications: listed as DNA, chemistry not fully specified
B16: cr655 (nucleic acid)
guide: B1 guide with T54C, G62T, G65A, C67A
modifications: listed as DNA, chemistry not fully specified
B17: cr603 (nucleic acid)
guide: B1 guide with G62T, A66C, C67A
modifications: listed as DNA, chemistry not fully specified
B18: cr366 (nucleic acid)
guide: B1 guide with A59G, G62T, G65A, C67A, T70C, C76T, G82A
modifications: listed as DNA, chemistry not fully specified
B19: cr557 (nucleic acid)
guide: B1 guide with A19C, G62T, G65A, C67A
modifications: listed as DNA, chemistry not fully specified
B20: cr561 (nucleic acid)
guide: B1 guide with A47T, G62T, G65A, C67A
modifications: listed as DNA, chemistry not fully specified
B21: cr018 (nucleic acid)
guide: B1 guide with G7A, G62T, G65A, C67A
modifications: listed as DNA, chemistry not fully specified
B22: cr978 (nucleic acid)
guide: B1 guide with G62T, G65A, C67A, C73A, C75A, G83T, G85T
modifications: listed as DNA, chemistry not fully specified
B23: cr334 (nucleic acid)
guide: B1 guide with C60G, G65A, G69C, G77A, C81T
modifications: listed as DNA, chemistry not fully specified
B24: cr941 (nucleic acid)
guide: B1 guide with C60A, G65A, G69T, G72A, C86T
modifications: listed as DNA, chemistry not fully specified
B25: cr283 (nucleic acid)
guide: B1 guide with G62T, G65A, C67A, G72A
modifications: listed as DNA, chemistry not fully specified
B26: cr494 (nucleic acid)
guide: B1 guide with G62T, G65A, C67T
modifications: listed as DNA, chemistry not fully specified
B27: cr302 (nucleic acid)
guide: B1 guide with T61G, G62T, G65A, C67A, A68C, C73T, A74C, T84G, G85A
modifications: listed as DNA, chemistry not fully specified
B28: cr600 (nucleic acid)
guide: B1 guide with C60G, G62T, C67A, G69C
modifications: listed as DNA, chemistry not fully specified
B29: cr934 (nucleic acid)
guide: B1 guide with A47T, T56C, G62T, G65A, C67A, G79T
modifications: listed as DNA, chemistry not fully specified
B30: cr619 (nucleic acid)
guide: B1 guide with G62T, A64G, G65A, C67A
modifications: listed as DNA, chemistry not fully specified
B31: cr354 (nucleic acid)
guide: B1 guide with A59G, G62T, G65A, C67A, T70C, G72A, C73T, G85A, C86T
modifications: listed as DNA, chemistry not fully specified
B32: cr323 (nucleic acid)
guide: B1 guide with A32G, G62T, G65C, C67A
modifications: listed as DNA, chemistry not fully specified
B33: cr113 (nucleic acid)
guide: B1 guide with A55T, G62T, G65A, C67A
modifications: listed as DNA, chemistry not fully specified
B34: cr020 (nucleic acid)
guide: B1 guide with G7T, G62T, G65A, C67A
modifications: listed as DNA, chemistry not fully specified
B35: cr948 (nucleic acid)
guide: B1 guide with G62T, G65A, C67G
modifications: listed as DNA, chemistry not fully specified
B36: cr592 (nucleic acid)
guide: B1 guide with C45T, G48A, G62T, G65A, C67A
modifications: listed as DNA, chemistry not fully specified
B37: cr971 (nucleic acid)
guide: B1 guide with G62T, G63A, G65T, C67A
modifications: listed as DNA, chemistry not fully specified
B38: cr701 (nucleic acid)
guide: B1 guide with G62T, G65A, C67A, G79C
modifications: listed as DNA, chemistry not fully specified
B39: cr140 (nucleic acid)
guide: B1 guide with C60T, T61C, G62T, G65A, C67A, A68G, G69A
modifications: listed as DNA, chemistry not fully specified

Drawing on patent US20220259593A1, “CONTROL OF MAMMALIAN GENE DOSAGE USING CRISPR” (The Regents of the University of California, priority 2019, published 2022), this text covers Mean relative activity for 39 molecules.

Changes are numbered by the printed parent chain.

For one data set, the system named is K562 CRISPRi cells. In words: Constant region variant library pooled growth screen, K562. It counts as cell-based, human. Conditions: sgRNA constant region variants; activity relative to the original, un-modified constant region cr995. In a few lines:
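Relative activity expresses each targeting sequence:constant region pair's phenotype over that of the unmodified constant region. Pooled growth screen ran in K562 CRISPRi cells in duplicate spinner-flask replicates, with puromycin selection and 4–8 days' growth at >2000× coverage; library paired variants with 36 targeting sequences.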
Take B1: the Mean relative activity is on record as 1.072.

Consider B2, for which the Mean relative activity is given as 1.075.

Molecule B3 came in with a Mean relative activity of 1.084.

Staying with this data set, now noted: sgRNA constant region variants; relative to the original, un-modified constant region cr995 (= 1).
For the molecule B4, the Mean relative activity worked out at 1.025.

For B5, the Mean relative activity was determined as 1.02.

B6 returned a Mean relative activity of 1.018.

As to B7, the Mean relative activity is given as 1.018.

Molecule B8 had a Mean relative activity of 1.021.

With B9, the Mean relative activity came out at 1.017.

B10 gave a Mean relative activity of 1.021.

In turn, B11 registered a Mean relative activity of 1.023.

As for B12, the Mean relative activity was 1.019.

In the case of B13, the Mean relative activity turned out to be 1.014.

B14 showed a Mean relative activity of 1.02.

In turn, B15 yielded a Mean relative activity of 1.025.

B16 came in with a Mean relative activity of 1.016.

B17 showed a Mean relative activity of 1.018.

The molecule B18 yielded a Mean relative activity of 1.017.

With B19, the Mean relative activity worked out at 1.018.

Molecule B20 came in with a Mean relative activity of 1.021.

B21 returned a Mean relative activity of 1.017.

Turning to B22, the Mean relative activity worked out at 1.021.

For the molecule B23, the Mean relative activity is on record as 1.025.

In turn, B24 displayed a Mean relative activity of 1.016.

Consider B25, for which the Mean relative activity was 1 .01760152.

Molecule B26 had a Mean relative activity of 1.016.

Regarding B27, the Mean relative activity turned out to be 1.016.

In turn, B28 had a Mean relative activity of 1.021.

Take B29: the Mean relative activity is given as 1.024.

Consider B30, for which the Mean relative activity is 1.015.

For the molecule B31, the Mean relative activity is 1.016.

Take B32: the Mean relative activity amounted to 1.02.

In turn, B33 came in with a Mean relative activity of 1.016.

Take B34: the Mean relative activity was 1.02.

On to B35, for which the Mean relative activity worked out at 1.02.

In turn, B36 yielded a Mean relative activity of 1.017.

Regarding B37, the Mean relative activity was 1.017.

Consider B38, for which the Mean relative activity was determined as 1.016.

B39: the Mean relative activity is on record as 1.023.
